# Laboratory results: patent US20060188874A1, “Methods and compositions for colorimetrically assessing peptide characteristics” (priority 2004, published 2006)
# Columns and labels:
# Assay type in all cases: physicochemical
# [1] = Molar mass by MALS light scattering (apparent MW as measure of aggregation); settings: solution sample taken during acid addition at pH 9.3, re-work of Sample A
# From the text: Molecular weight analysis is also a useful technique to assess beta sheet structure in a peptide. Depending upon the technique and equipment used, the molecular weight may be the weight average molecular weight, number average molecular weight, actual molecular weight, or average molecular weight. Assessment of average molecular weight or weight average molecular weight are preferred. A peptide formed from a known sequence and number of amino acids generally has a theoretical molecular weight that is known with a fair degree of certainty. The theoretical molecular weight can be calculated from the theoretical peptide structure. The molecular weight of a peptide sample can be determined through any suitable technique such as light scattering analysis. However, the amount of beta sheet structure of a sample impacts its measured molecular weight. Generally, the measured molecular weight tends to be higher with increasing amounts of beta sheet structure being present.
# As an example, the T-1249 peptide has a theoretical molecular weight of about 5000. The measured, apparent molecular weight of actual samples of the peptide may range from 6000 to 100,000 or even more. […]
# Sample A was a portion of a highly aggregated batch of T-1249 peptide having an average molecular weight of 98,890±6660. The molar mass was determined using MALS light scattering. […]
# [2] = Congo Red colorimetric analysis of beta sheet aggregation; settings: aggregated T-1249 peptide added to initially orange red solution
# Experimental: The following procedure is used to prepare a Congo Red solution suitable for assessing, qualitatively and/or quantitatively, via colorimetric analysis the solubility and formulating characteristics of a peptide sample. A 50 mM solution of sodium phosphate buffer, pH 7.2 is prepared and filtered through a 0.22 μm Polyethersulfone membrane. 25 μM of Congo Red is dissolved in the sodium phosphate buffer with sonication. The mixture also included about 1% by volume ethanol (This can be 95% ethanol or absolute ethanol.) The solution is orange-colored.
# Sonication is used until the peptide is dissolved
# The peptide/Congo Red solution is incubated at ambient temperature for 3-4 hours.
# According to a preferred procedure, a Hewlett Packard 8453 spectrophotometer is used to obtain a blank, reference spectrum of the 50 mM solution of sodium phosphate buffer prepared in Example 6. Using the same instrument, a spectrum for the 25 μM Congo Red solution is measured over a suitable range, e.g., from about 300 nm to about 650 nm. […] If this difference is greater than an empirically determined quality control specification, the sample can be deemed to fail. […]
# [3] = Dissolution test of peptide sample (pH raised stepwise until dissolved)
# Experimental: For example, a simple dissolution test can be used to evaluate the solubility characteristics of a peptide sample. The test is conveniently carried out at a temperature in the range of from about 20° C. to about 27° C., preferably about 25° C. From about 0.1 to about 0.3 grams of peptide is combined with about 1 to about 3 ml of an aqueous medium. The medium may be deionized water. In the case of T-20 or T-1249, these peptides are mildly acetic. Consequently, the medium optionally may include some initial amount base, e.g., about 17 mM Na2CO3 or the like, to provide a suitable initial pH. […] The mixture is rapidly stirred for 5 to 10 minutes between additional increments. Solids adhering to the sides of the testing vessel should be re-suspended. Rapid mixing should be maintained throughout. Results include observations regarding the clarity of the mixture, time required for dissolution, concentration and amount of caustic used, final pH upon dissolution (if this occurs below pH 9), and the like.
# For purposes of the invention, peptides such as T-20, T-1249, and GLP-1, as well as counterparts of these, may be deemed to be in a more desired, deaggregated form if dissolution in accordance with this test occurs at a pH of less than about 8, preferably less than about 7.5. If dissolution occurs at a pH of greater than about 7.5, more preferably greater than about 8, the peptide is deemed to be in a less desired aggregated form. This helps to ensure the practicality of handling the peptide during subsequent processing and handling.
# [4] = precipitated with 18% by volume acetonitrile
substance,measurement,setting,value
"Acetyl-WQEWEQKITALLEQAQIQQE KNEYELQKLDKWASLWEWF-NH2 (Ac-WQEWEQKITALLEQAQIQQEKNEYELQKLDKWASLWEWF-NH2) [Sample T-1249, ID NO; 20]",molar mass by the MALS method,[1],6500
same,colour change of Congo Red solution,[2],deep salmon-pink color
same,dissolution behaviour,[3]; precipitated with 14% by volume acetonitrile,dissolved to some degree at a pH of 6.95 but not completely
same,dissolution time,[3]; [4],1 h
same,final pH at dissolution,[3]; [4],6.69
same,turbidity appearance at dissolution,[3]; [4],very faint turbidity
same,dissolution pH,[3]; precipitated with 20 to 22 volume percent acetonitrile,around 9
same,dissolution behaviour,"[3]; precipitated with no co-solvent, after 14 to 18 hours, pH of 8",dissolved very slowly with high turbidity
